The values that follow come from patent publication US20260008815A1, “CYCLIC PEPTIDE OR SALT THEREOF, AND USES THEREOF” (FUJIFILM Corporation, priority 2023, published 2026).

The labels stand for the following.
B1: cyclic peptide SEQ ID NO: 135 (peptide)
peptide: QCTYLAQYLVERYHLTK(COCH2)T
modifications: thioether 2-17
B2: cyclic peptide SEQ ID NO: 133 (peptide)
peptide: ECLGNYFSHEQYQYLLQYK(COCH2)I
modifications: thioether 2-19
B3: cyclic peptide SEQ ID NO: 43 (peptide)
peptide: HCNANFVYQQQYLYLLQYK(COCH2)L
modifications: thioether 2-19 (inferred)
B4: cyclic peptide SEQ ID NO: 131 (peptide)
peptide: YCEENYLDPEQYQYFIYFK(COCH2)Y
modifications: thioether 2-19
B5: cyclic peptide SEQ ID NO: 146 (peptide)
peptide: TCEENYLDPEQYQYFIYFK(COCH2)Y
modifications: thioether 2-19
B6: cyclic peptide SEQ ID NO: 153 (peptide)
peptide: YCLENYLDPEQYQYFIYFK(COCH2)Y
modifications: thioether 2-19
B7: cyclic peptide SEQ ID NO: 149 (peptide)
peptide: RCEENYLDPEQYQYFIYFK(COCH2)Y
modifications: thioether 2-19
B8: cyclic peptide SEQ ID NO: 148 (peptide)
peptide: ECEENYLDPEQYQYFIYFK(COCH2)Y
modifications: thioether 2-19
B9: cyclic peptide SEQ ID NO: 151 (peptide)
peptide: YCGENYLDPEQYQYFIYFK(COCH2)Y
modifications: thioether 2-19
B10: cyclic peptide SEQ ID NO: 140 (peptide)
peptide: VCEENYLDPEQYQYFIYFK(COCH2)Y
modifications: thioether 2-19
B11: cyclic peptide SEQ ID NO: 160 (peptide)
peptide: YCQENYLDPEQYQYFIYFK(COCH2)Y
modifications: thioether 2-19
B12: cyclic peptide SEQ ID NO: 156 (peptide)
peptide: YCFENYLDPEQYQYFIYFK(COCH2)Y
modifications: thioether 2-19
B13: cyclic peptide SEQ ID NO: 137 (peptide)
peptide: PCEENYLDPEQYQYFIYFK(COCH2)Y
modifications: thioether 2-19
B14: cyclic peptide SEQ ID NO: 145 (peptide)
peptide: SCEENYLDPEQYQYFIYFK(COCH2)Y
modifications: thioether 2-19
B15: cyclic peptide SEQ ID NO: 152 (peptide)
peptide: YCPENYLDPEQYQYFIYFK(COCH2)Y
modifications: thioether 2-19
B16: cyclic peptide SEQ ID NO: 142 (peptide)
peptide: WCEENYLDPEQYQYFIYFK(COCH2)Y
modifications: thioether 2-19
B17: cyclic peptide SEQ ID NO: 163 (peptide)
peptide: YCDENYLDPEQYQYFIYFK(COCH2)Y
modifications: thioether 2-19
B18: cyclic peptide SEQ ID NO: 161 (peptide)
peptide: YCSENYLDPEQYQYFIYFK(COCH2)Y
modifications: thioether 2-19
B19: cyclic peptide SEQ ID NO: 150 (peptide)
peptide: HCEENYLDPEQYQYFIYFK(COCH2)Y
modifications: thioether 2-19
B20: cyclic peptide SEQ ID NO: 144 (peptide)
peptide: QCEENYLDPEQYQYFIYFK(COCH2)Y
modifications: thioether 2-19
B21: cyclic peptide SEQ ID NO: 159 (peptide)
peptide: YCNENYLDPEQYQYFIYFK(COCH2)Y
modifications: thioether 2-19
B22: cyclic peptide SEQ ID NO: 154 (peptide)
peptide: YCIENYLDPEQYQYFIYFK(COCH2)Y
modifications: thioether 2-19
B23: cyclic peptide SEQ ID NO: 147 (peptide)
peptide: DCEENYLDPEQYQYFIYFK(COCH2)Y
modifications: thioether 2-19
B24: cyclic peptide SEQ ID NO: 158 (peptide)
peptide: YCWENYLDPEQYQYFIYFK(COCH2)Y
modifications: thioether 2-19
B25: cyclic peptide SEQ ID NO: 157 (peptide)
peptide: YCYENYLDPEQYQYFIYFK(COCH2)Y
modifications: thioether 2-19
B26: cyclic peptide SEQ ID NO: 136 (peptide)
peptide: GCEENYLDPEQYQYFIYFK(COCH2)Y
modifications: thioether 2-19
B27: cyclic peptide SEQ ID NO: 155 (peptide)
peptide: YCVENYLDPEQYQYFIYFK(COCH2)Y
modifications: thioether 2-19
B28: cyclic peptide SEQ ID NO: 162 (peptide)
peptide: YCTENYLDPEQYQYFIYFK(COCH2)Y
modifications: thioether 2-19
B29: cyclic peptide SEQ ID NO: 138 (peptide)
peptide: LCEENYLDPEQYQYFIYFK(COCH2)Y
modifications: thioether 2-19
B30: cyclic peptide SEQ ID NO: 143 (peptide)
peptide: NCEENYLDPEQYQYFIYFK(COCH2)Y
modifications: thioether 2-19
B31: cyclic peptide SEQ ID NO: 141 (peptide)
peptide: FCEENYLDPEQYQYFIYFK(COCH2)Y
modifications: thioether 2-19
B32: cyclic peptide SEQ ID NO: 139 (peptide)
peptide: ICEENYLDPEQYQYFIYFK(COCH2)Y
modifications: thioether 2-19
B33: cyclic peptide SEQ ID NO: 134 (peptide)
peptide: LCADQYDYLLQYVFWRTYK(COCH2)I
modifications: thioether 2-19

Bridge positions count the residues as written; N and C are the ends. Ends that are not written are not given here. COCH2 = acetyl group that carries the bridge Bounds are passed on as bounds.

T1 sequence (P21802 22-377, change not shown): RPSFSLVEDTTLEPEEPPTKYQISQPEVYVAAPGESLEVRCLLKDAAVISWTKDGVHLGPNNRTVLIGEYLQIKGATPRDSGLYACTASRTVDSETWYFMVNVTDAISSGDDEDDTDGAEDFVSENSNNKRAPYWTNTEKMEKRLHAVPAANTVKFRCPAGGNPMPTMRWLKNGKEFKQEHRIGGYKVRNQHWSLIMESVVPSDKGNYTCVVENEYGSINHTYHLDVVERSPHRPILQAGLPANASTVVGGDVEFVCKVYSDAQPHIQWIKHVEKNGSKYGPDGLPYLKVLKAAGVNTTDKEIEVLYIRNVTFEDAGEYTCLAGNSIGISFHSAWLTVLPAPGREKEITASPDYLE

The assay concerns the target T1, Recombinant Human FGFR2 alpha (IIIc) Fc Chimera Protein, CF (R&D systems, 712-FR-050) (human, UniProt P21802 22-377).
T1 construct: bought; not shown: Fc part of the chimera
Nature of the assay: ELISA on plate-bound FGFR2-Fc. How it is done:
First, 5 ng of Recombinant Human FGFR2 alpha (IIIc) Fc Chimera Protein (R&D systems, 712-FR-050) was immobilized in each well of a 96-well plate, and blocked with Pierce Protein-Free (PBS) Blocking Buffer (Thermo, 37572), and a peptide diluted with Can Get Signal Immunoreaction Enhancer Solution I (TOYOBO, NKB-101) was then added and reacted at room temperature for 3 hours. After washing with 0.05% Tween 20-containing phosphate buffered saline (PBS), an anti-Myc antibody (Cell Signaling, 14038S) diluted with Can Get Signal Immunoreaction Enhancer Solution II (TOYOBO, NKB-101) was added and reacted at room temperature for 2 hours. After washing with 0.05% Tween 20-containing PBS, SuperSignal ELISA Femto Substrate (Thermo, 37075) was added, and the luminescence amount was measured. The dose-response relationship was calculated from using the difference between the luminescence amount in the well in which FGFR was immobilized and the luminescence amount in the well in which FGFR was not immobilized, and the concentration of the peptide at the time of reaction, and the binding affinity to FGFR was evaluated according to the following evaluation criteria. The evaluation result preferably satisfies the evaluation criteria A, B, or C.
On to B1, for which the “ELISA luminescence signal at 10 nmol/L peptide, relative to SEQ ID NO: 47 (=1)” value lay within 0.1 to 0.5 ratio.

Consider B2, for which the “ELISA luminescence signal at 10 nmol/L peptide, relative to SEQ ID NO: 47 (=1)” value was at least 0.7 ratio.

In the case of B3, the “ELISA luminescence signal at 10 nmol/L peptide, relative to SEQ ID NO: 47 (=1)” value was in the range of 0.5 to 0.7 ratio.

Regarding B4, the “ELISA luminescence signal at 10 nmol/L peptide, relative to SEQ ID NO: 47 (=1)” value was at least 0.7 ratio.

Consider B5, for which the “ELISA luminescence signal at 10 nmol/L peptide, relative to SEQ ID NO: 47 (=1)” value is at least 0.7 ratio.

For B6, the “ELISA luminescence signal at 10 nmol/L peptide, relative to SEQ ID NO: 47 (=1)” value is at least 0.7 ratio.

Take B7: the “ELISA luminescence signal at 10 nmol/L peptide, relative to SEQ ID NO: 47 (=1)” value was at least 0.7 ratio.

In the case of B8, the “ELISA luminescence signal at 10 nmol/L peptide, relative to SEQ ID NO: 47 (=1)” value was at least 0.7 ratio.

As to B9, the “ELISA luminescence signal at 10 nmol/L peptide, relative to SEQ ID NO: 47 (=1)” value was at least 0.7 ratio.

As for B10, the “ELISA luminescence signal at 10 nmol/L peptide, relative to SEQ ID NO: 47 (=1)” value was at least 0.7 ratio.

On to B11, for which the “ELISA luminescence signal at 10 nmol/L peptide, relative to SEQ ID NO: 47 (=1)” value was at least 0.7 ratio.

Regarding B12, the “ELISA luminescence signal at 10 nmol/L peptide, relative to SEQ ID NO: 47 (=1)” value is at least 0.7 ratio.

Turning to B13, the “ELISA luminescence signal at 10 nmol/L peptide, relative to SEQ ID NO: 47 (=1)” value is at least 0.7 ratio.

B14: the “ELISA luminescence signal at 10 nmol/L peptide, relative to SEQ ID NO: 47 (=1)” value is at least 0.7 ratio.

In the case of B15, the “ELISA luminescence signal at 10 nmol/L peptide, relative to SEQ ID NO: 47 (=1)” value was at least 0.7 ratio.

For the molecule B16, the “ELISA luminescence signal at 10 nmol/L peptide, relative to SEQ ID NO: 47 (=1)” value is at least 0.7 ratio.

As for B17, the “ELISA luminescence signal at 10 nmol/L peptide, relative to SEQ ID NO: 47 (=1)” value is at least 0.7 ratio.

Turning to B18, the “ELISA luminescence signal at 10 nmol/L peptide, relative to SEQ ID NO: 47 (=1)” value was at least 0.7 ratio.

On to B19, for which the “ELISA luminescence signal at 10 nmol/L peptide, relative to SEQ ID NO: 47 (=1)” value was at least 0.7 ratio.

In the case of B20, the “ELISA luminescence signal at 10 nmol/L peptide, relative to SEQ ID NO: 47 (=1)” value is at least 0.7 ratio.

On to B21, for which the “ELISA luminescence signal at 10 nmol/L peptide, relative to SEQ ID NO: 47 (=1)” value was at least 0.7 ratio.

For the molecule B22, the “ELISA luminescence signal at 10 nmol/L peptide, relative to SEQ ID NO: 47 (=1)” value is at least 0.7 ratio.

Consider B23, for which the “ELISA luminescence signal at 10 nmol/L peptide, relative to SEQ ID NO: 47 (=1)” value is at least 0.7 ratio.

B24: the “ELISA luminescence signal at 10 nmol/L peptide, relative to SEQ ID NO: 47 (=1)” value was at least 0.7 ratio.

For the molecule B25, the “ELISA luminescence signal at 10 nmol/L peptide, relative to SEQ ID NO: 47 (=1)” value is at least 0.7 ratio.

On to B26, for which the “ELISA luminescence signal at 10 nmol/L peptide, relative to SEQ ID NO: 47 (=1)” value is at least 0.7 ratio.

Take B27: the “ELISA luminescence signal at 10 nmol/L peptide, relative to SEQ ID NO: 47 (=1)” value is at least 0.7 ratio.

Take B28: the “ELISA luminescence signal at 10 nmol/L peptide, relative to SEQ ID NO: 47 (=1)” value was at least 0.7 ratio.

Regarding B29, the “ELISA luminescence signal at 10 nmol/L peptide, relative to SEQ ID NO: 47 (=1)” value was at least 0.7 ratio.

For the molecule B30, the “ELISA luminescence signal at 10 nmol/L peptide, relative to SEQ ID NO: 47 (=1)” value was at least 0.7 ratio.

Turning to B31, the “ELISA luminescence signal at 10 nmol/L peptide, relative to SEQ ID NO: 47 (=1)” value is at least 0.7 ratio.

Regarding B32, the “ELISA luminescence signal at 10 nmol/L peptide, relative to SEQ ID NO: 47 (=1)” value was at least 0.7 ratio.

For the molecule B33, the “ELISA luminescence signal at 10 nmol/L peptide, relative to SEQ ID NO: 47 (=1)” value fell in the range of 0.1 to 0.5 ratio.
